Experimental data reported in publication doi:10.1101/2020.02.11.944462 (bioRxiv, 2020).

Target: T1, human angiotensin-converting enzyme 2 (ACE2), residues 1-615, untagged (human, UniProt Q9BYF1 18-615)
T1 construct: also called human ACE2; not shown: TwinStrepTag, C-terminal, cleaved; 8XHisTag, C-terminal, cleaved
Assay: SPR; […], Biacore X100; 10 mM HEPES pH 8.0, 150 mM NaCl, 0.05% Tween 20; […]; 1:1 binding model
Conditions: both partners purified

T1 sequence (Q9BYF1 18-615): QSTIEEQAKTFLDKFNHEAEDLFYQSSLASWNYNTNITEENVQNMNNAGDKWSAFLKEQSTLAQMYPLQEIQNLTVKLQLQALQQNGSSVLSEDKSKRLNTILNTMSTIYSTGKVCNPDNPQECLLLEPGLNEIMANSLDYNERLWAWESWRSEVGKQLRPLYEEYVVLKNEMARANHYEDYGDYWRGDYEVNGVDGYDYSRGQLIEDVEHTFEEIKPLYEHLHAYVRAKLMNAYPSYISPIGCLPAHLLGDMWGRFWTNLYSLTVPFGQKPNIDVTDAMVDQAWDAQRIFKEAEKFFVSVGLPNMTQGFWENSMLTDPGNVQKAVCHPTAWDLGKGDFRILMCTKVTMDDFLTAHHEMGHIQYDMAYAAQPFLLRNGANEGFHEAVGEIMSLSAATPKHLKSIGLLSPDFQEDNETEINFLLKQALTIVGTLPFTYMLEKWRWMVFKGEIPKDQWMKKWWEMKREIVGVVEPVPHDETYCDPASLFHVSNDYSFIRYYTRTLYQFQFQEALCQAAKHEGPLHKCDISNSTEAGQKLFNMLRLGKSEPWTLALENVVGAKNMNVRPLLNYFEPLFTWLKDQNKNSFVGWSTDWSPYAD

B1: SARS-CoV RBD-SD1 (S residues 306-577, Urbani strain), His-tagged (domain or fragment)
chain: not shown
**Q.** Does B1 bind?
**A.** Result: binds
